The values that follow come from paper PMC4865633, “Data on dimer formation between importin α subtypes” (Data in Brief, 2016).

To fix the notation:
B3: GST-h-importin α3 (KPNA4, Qip1) (natural protein)
chain: MADNEKLDNQRLKNFKNKGRDLETMRRQRNEVVVELRKNKRDEHLLKRRNVPHEDICEDSDIDGDYRVQNTSLEAIVQNASSDNQGIQLSAVQAARKLLSSDRNPPIDDLIKSGILPILVHCLERDDNPSLQFEAAWALTNIASGTSEQTQAVVQSNAVPLFLRLLHSPHQNVCEQAVWALGNIIGDGPQCRDYVISLGVVKPLLSFISPSIPITFLRNVTWVMVNLCRHKDPPPPMETIQEILPALCVLIHHTDVNILVDTVWALSYLTDAGNEQIQMVIDSGIVPHLVPLLSHQEVKVQTAALRAVGNIVTGTDEQTQVVLNCDALSHFPALLTHPKEKINKEAVWFLSNITAGNQQQVQAVIDANLVPMIIHLLDKGDFGTQKEAAWAISNLTISGRKDQVAYLIQQNVIPPFCNLLTVKDAQVVQVVLDGLSNILKMAEDEAETIGNLIEECGGLEKIEQLQNHENEDIYKLAYEIIDQFFSSDDIDEDPSLVPEAIQGGTFGFNSSANVPTEGFQF
notes: human importin α3 (KPNA4, Qip1); plasmid pGEX2T-human-importin α3, obtained as described previously; also called GST-importin α3; IMPα3; source: E. coli Rosetta, purified on GSH beads, bacterially expressed and purified recombinant protein

Common to all, as to conditions: both partners purified
The target of assay [1] is B3. Put plainly: pull-down; GST-h-importin α3 (50 pmol) on GSH beads preincubated with p53 (250 pmol) in TB with 0.1% Triton X-100 at 4 °C for 1 h, washed, then 50 or 500 pmol FLAG-h-importin α8 or α1 added at 4 °C for 1 h; western blot (Fig. 2B).
Assay [2] has as its target GST-m-importin α1 (KPNA2) (mouse, UniProt P52293 1-529). The assay can be described thus: pull-down; GST fusions immobilized on GSH beads, 100 pmol FLAG-importin α in 200 μL transport buffer (20 mM HEPES pH 7.3, 110 mM potassium acetate, 2 mM magnesium acetate, 1 mM EGTA, 1 mM DTT) with 0.1% Triton X-100, 4 °C, 1 h; western blot with anti-FLAG and anti-GST (Fig. 1A).
The target in assay [3] is T1, GST-h-importin α8 (KPNA7) (human, UniProt A9QM74 1-516).
T1 construct: human importin α8 (KPNA7); also called GST-importin α8; IMPα8; source: E. coli Rosetta, purified on GSH beads, bacterially expressed and purified recombinant protein
T1 sequence (A9QM74 whole entry): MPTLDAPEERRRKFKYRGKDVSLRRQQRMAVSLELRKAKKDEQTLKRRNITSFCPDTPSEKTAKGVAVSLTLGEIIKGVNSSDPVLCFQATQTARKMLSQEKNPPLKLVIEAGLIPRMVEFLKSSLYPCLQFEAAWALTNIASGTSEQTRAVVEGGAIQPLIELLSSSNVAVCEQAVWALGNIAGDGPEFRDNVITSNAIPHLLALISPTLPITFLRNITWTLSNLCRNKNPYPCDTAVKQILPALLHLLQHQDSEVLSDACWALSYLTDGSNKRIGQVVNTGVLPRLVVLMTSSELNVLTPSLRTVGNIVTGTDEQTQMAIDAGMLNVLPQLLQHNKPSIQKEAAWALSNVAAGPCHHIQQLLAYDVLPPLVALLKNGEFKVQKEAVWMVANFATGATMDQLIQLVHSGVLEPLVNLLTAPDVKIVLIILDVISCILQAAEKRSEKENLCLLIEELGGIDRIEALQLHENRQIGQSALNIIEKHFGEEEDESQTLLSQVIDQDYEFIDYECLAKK
Described as above.

For assay [4], the target named is B3. The assay can be described thus: pull-down; GST-h-importin α3 (50 pmol) on GSH beads preincubated with SV40TNLS-GFP (50 pmol) at 4 °C for 1 h, washed, then 50 or 500 pmol FLAG-h-importin α8 or α1 added at 4 °C for 1 h; western blot (Fig. 1B).
Assay [5] deals with FLAG-h-importin α1 (KPNA2) (human, UniProt P52292 1-529). The assay can be described thus: pull-down; GST-h-importin α3 (50 pmol) on GSH beads preincubated with p53 (250 pmol) in TB with 0.1% Triton X-100 at 4 °C for 1 h, washed, then 50 or 500 pmol FLAG-h-importin α8 or α1 added at 4 °C for 1 h; western blot (Fig. 2B).

B1: FLAG-h-importin α8 (KPNA7) (natural protein)
chain: not shown
notes: human importin α8 (KPNA7), amplified from pcDNA5/3xFLAG-h-importin α8 with primers from the start codon to the stop codon, in pGEX6P3; Cleavage of GST is told in general in the methods; also called FLAG-importin α8; IMPα8; source: E. coli Rosetta, GST fusion purified on GSH beads, bacterially expressed and purified recombinant protein; not shown: FLAG, N-terminal, kept
Turning to B1, the binding result in assay [1], in assay [2] and in assay [3] was “binds” each time.

B2: SV40TNLS-GFP (domain or fragment)
chain: PPKKKRKVED
notes: also called SV40TNLS substrate; SV40 large T antigen NLS
In the case of B2, in assay [4], the binding result is reported as “binds”. In the case of B3, in assay [5], the binding result is “binds”.
